Several values for one entry are separate records, joined by “and”; a condition that tells them apart may be missing. Equal entries are not always repeated.
B1: 39S: lead optimized monoclonal antibody derived from the 1.39.1 antibody; VH SEQ ID NO:15, VL SEQ ID NO:16 (antibody, V domains shown)
VH: EVQLVESGGGLVKPGGSLRLSCAASGFTFSSYSMSWVRQAPGKGLEWVSSISSSSSYIYYADSVKGRFTISRDNAKNSLYLQMNSLRAEDTAVYYCARGGDAYNYYYFDYWGQGTLVTVSS
VL: DIVMTQTPLSLSVTPGQPASISCKSSQSVFFRSNNKNILAWYLQKPGQPPQLLIYWASSRESGVPDRFSGSGSGTDFTLKISRVEAEDVGVYYCQQYFGSPFTFGPGTKVDIK

Tests used:
JIMT-1 model = assay: CBX orthotopic tumor model (T-DM1 non-responder); assay type: in vivo, Athymic nude mice; conditions: JIMT-1 orthotopic CBX; Bs2-4T at 3 mg/kg
Experimental: All mouse experiments were carried out in compliance with the guidelines published by the Association for Assessment and Accreditation of Laboratory Animal Care (AAALAC) and protocols approved by the MedImmune Institutional Animal Care and Use Committee. Athymic nude mice between 4-8 weeks of age were used in the studies. In subcutaneous CBX models, animals were injected unilaterally on the right flank with tumor cells harvested from culture at a specific passage lot. […] In PDX models, animals are implanted unilaterally on the flank with tumor fragments harvested from host animals each implanted from a specific passage lot. Pre-study tumor volumes were recorded for each experiment beginning approximately one week prior to its estimated start date. […] Animals were dosed once weekly unless otherwise specified with test articles via intravenous or intraperitoneal injection. Animals were observed daily and tumor dimensions and body weights were measured and recorded twice weekly.

[1] = target: T1, chimeric human/mouse Her2 variants (Homo sapiens, UniProt P04626, A221T/A298T/D307E/F173L/G201D/G222S/H174R/H193P/H318N/I172V/I184M/L181P/L183D/L317P/M198T/P230R/P283L/R203H/R217G/S196A/S202N/S209P/S214I/T182V/V219I/V272I); assay: ProteOn SPR binding of 39S to captured chimeric Her2 variants; conditions: variant KO_II, swapped amino acids 146-310
T1 construct: His tag; made in house; host or cells: HEK293F (transient, pEBNA vector; captured from culture supernatant)
Description: (§1) The domain II of human HER2 was identified as the epitope of 39S by swapping domains between human and mouse Her2 molecules. Mouse Her2 was chosen as the chimeric partner because it is not recognized by 39S, but shares 85% sequence identity with human HER2. Chimeric variants targeting each domain of HER2 were constructed (see method below) as listed in Table 4, including four knock-out (KO, loss-of-function) variants replacing domain I, II, III, or IV of human HER2 with the mouse counterpart, and one knock-in (KI, gain-of-function) variant grafting the domain II of human HER2 into mouse Her2 molecule. The chimeric variant nomenclature denotes types of variants (KO/KI) and the number of domains swapped. The binding profiles of 39S to these variants were characterized using a SPR based instrument ProteOn™ by capturing variants on sensor surfaces using anti-human and mouse Her2 polyclonal antibodies (see method below). The expression of the variants was monitored by anti-His polyclonal antibody using ProteOn™. […] Therefore, the domain II (amino acid 146-310) of human HER2 was identified as the epitope-containing domain of 39S by both loss-of-function and gain-of-function variants.
(§2) We further refined the epitope of 39S and identified the region of amino acid 192-208 in domain II as the critical epitope region. […] Seven knock-out variants were generated by replacing each of the following human HER2 regions with the mouse counterparts, including amino acids 146-208, 159-162, 171-187, 192-208, 250-261, 276-285, and 295-296. In addition, one knock-in variant was constructed by grafting the region of amino acid 192-208 of human HER2 to the mouse molecule. The variant nomenclature denotes types of variants (KO/KI) and the swapped regions with amino acid numbering. All variants had detectable expression levels by anti-His polyclonal antibody (Table 4). […] The binding of 39S was not impacted when substituting any other regions of human HER2 with mouse amino acids (KO_159-162, KO_171-187, KO_250-261, KO_276-285, and KO_295-296). […] Taken together, the region of amino acid 192-208 in domain II of human HER2 was identified as the functional epitope of 39S.
(§3) The variant nomenclature denotes types of variants (KO/KI) and the swapped regions with amino acid numbering. Amino acid positions were denoted basing on the numbering scheme of mature human HER2 sequences without its signal peptide. The expression levels of all variants were monitored by an anti-His polyclonal antibody. The binding profiles of 39S to these variants were characterized using a SPR based instrument ProteOn™ by capturing variants on sensor surfaces using anti-human and mouse Her2 polyclonal antibodies.
(§4) Construction and expression of chimeric human/mouse Her2 variants were constructed as follows. Briefly, DNAs encoding chimeric human/mouse Her2 variants with a His tag were assembled and amplified by overlapping PCR using human and mouse Her2 plasmids as templates (MedImmune). The assembled DNAs were cloned into the mammalian expression vector pEBNA (MedImmune). HEK293F cells were then transiently transfected with the various constructs using 293fectin and standard protocols according to the manufacturer's instructions (Invitrogen).
(§5) The binding characteristics of 39S to chimeric human/mouse variants were studied using a ProteOn™ XPR36 instrument (BioRad). Standard amine coupling was used to immobilize an anti-human or mouse Her2 polyclonal antibody (R&D System) in 10 mM sodium acetate (pH 5.0) to the surface of a GLC biosensor chip at ˜5000 resonance units (RU) for each channel. The chimeric proteins in cell culture supernatant were injected and captured by anti-human or mouse polyclonal antibodies onto the GLC surface with a ˜200RU response. Anti-HER2 mAb 39S was diluted in phosphate-buffered saline (PBS) (pH 7.4) with 0.005% Tween-20 from 10 nM to 0.625 nM (1:2 dilution), and injected at 100 μL/min for 180 sec with a 600-second dissociation time. […]

[2] = target: T2, chimeric human/mouse Her2 variants (Homo sapiens, UniProt P04626, A221T/G222S/P230R/R217G/S214I/V219I); assay: as above; conditions: variant KO_192-208
T2 construct: His tag; made in house; host or cells: HEK293F (transient, pEBNA vector; captured from culture supernatant)
Description: as §1, §2, §3, §4, §5

[3] = target: T3, chimeric human/mouse Her2 variants (Mus musculus, UniProt P70424, A197S/D184L/D202G/E308D/G218R/H204R/I215S/I220V/I273V/L174F/L284P/M185I/N203S/N319H/P182L/P194H/P210S/P318L/R175H/R231P/S223G/T199M/T222A/T299A/V173I/V183T); assay: as above; conditions: variant KI_II, human amino acids 146-310 grafted into mouse Her2; read-out: The binding affinity of 39S (KD)
T3 construct: His tag; made in house; host or cells: HEK293F (transient, pEBNA vector; captured from culture supernatant)
Description: as §1, §2, §3, §4, §5

| Molecule | in vivo activity (tumor growth) (JIMT-1 model) | The binding affinity of 39S (KD) [1] | The binding affinity of 39S (KD) [2] | Kd [3] |
| --- | --- | --- | --- | --- |
| T-DM1 [reference compound] | no activity |  |  |  |
| B1 |  | did not bind and No | did not bind and No | 0.168 nM and 0.163 nM |

From patent US10160812B2, “Bispecific HER2 antibodies” (MedImmune, LLC, priority 2014, dated 2018)
